Test system: GST-histone H4 1–48
Assay: Pull-down of 35S-labeled RbAp46 mutants with GST-histone H4 1–48
Format: binding
Settings: autoradiogram, 300 mM NaCl, 20 mM Tris pH 8.0, 5 mM DTT, 0.1% (v/v) NP-40
Description: Figure 2 Histone H4 Recognition by the RbAp46-Binding Pocket (A) Electrostatic surface potential of RbAp46 contoured and color coded at −91 kT (red) and +91 kT (blue). […] The histone H4 peptide is shown as a stick model. The histone H4-binding pocket in RbAp46 is mainly formed by the negatively charged PP loop (which terminates in Pro-362 and Pro-363) and a hydrophobic surface on the N-terminal α helix (helix 1). The interaction of histone H4 residues (Gln-27, Lys-31, Ile-34, Arg-35, Arg-36, Leu-37, Arg-39, and Arg-40) is shown. (B) Detailed view showing the interactions of the hydrophobic Ile-34 and Leu-37 histone H4 residues with Phe-29 and Leu-30 in helix 1 of RbAp46, as well as the positively charged Arg-36, Arg-39, and Arg-40 histone H4 residues with the backbone carbonyl groups in the PP loop and a cluster of acidic residues (Glu-356, Asp-357, and Asp-360) in RbAp46. […] In each experiment, the input lane contains 30% of the ^35S-labeled RbAp46 protein used in each of the pull-down assays. The experiments were carried out in 300 mM NaCl, 20 mM Tris (pH 8.0), 5 mM DTT, and 0.1% (v/v) NP-40.
Recombinant histone H4 and RbAp46 proteins were expressed and purified as described previously ([Verreault et al., 1998; Berger et al., 2004]). Detailed procedures for the generation of the RbAp46/histone H4 peptide and recombinant histone H4 complexes can be found in the Supplemental Data. […]

Row | Molecule | Effect of RbAp46 mutation on interaction with histone H4
1 | L30Y: RbAp46 mutated in the hydrophobic surface of helix 1 (protein, 35S-labeled, RbAp46 mutated in the hydrophobic surface of helix 1) MASKEMFEDTVEERVINEEYKIWKKNTPFYYDLVMTHALQWPSLTVQWLPEVTKPEGKDYALHWLVLGTHTSDEQNHLVVARVHIPNDDAQFDASHCDSDKGEFGGFGSVTGKIECEIKINHEGEVNRARYMPQNPHIIATKTPSSDVLVFDYTKHPAKPDPSGECNPDLRLRGHQKEGYGLSWNSNLSGHLLSASDDHTVCLWDINAGPKEGKIVDAKAIFTGHSAVVEDVAWHLLHESLFGSVADDQKLMIWDTRSNTTSKPSHLVDAHTAEVNCLSFNPYSEFILATGSADKTVALWDLRNLKLKLHTFESHKDEIFQVHWSPHNETILASSGTDRRLNVWDLSKIGEEQSAEDAEDGPPELLFIHGGHTAKISDFSWNPNEPWVICSVSEDNIMQIWQMAENIYNDE | disrupt the interaction with histone H4
2 | E356Q + D357N + E359Q + D360N: RbAp46 mutated in the charged PP loop (protein, UniProt Q16576 2-425, looked up, variant E356Q D357N E359Q D360N) Histone-binding protein RBBP7: ASKEMFEDTVEERVINEEYKIWKKNTPFLYDLVMTHALQWPSLTVQWLPEVTKPEGKDYALHWLVLGTHTSDEQNHLVVARVHIPNDDAQFDASHCDSDKGEFGGFGSVTGKIECEIKINHEGEVNRARYMPQNPHIIATKTPSSDVLVFDYTKHPAKPDPSGECNPDLRLRGHQKEGYGLSWNSNLSGHLLSASDDHTVCLWDINAGPKEGKIVDAKAIFTGHSAVVEDVAWHLLHESLFGSVADDQKLMIWDTRSNTTSKPSHLVDAHTAEVNCLSFNPYSEFILATGSADKTVALWDLRNLKLKLHTFESHKDEIFQVHWSPHNETILASSGTDRRLNVWDLSKIGEEQSAQNAQNGPPELLFIHGGHTAKISDFSWNPNEPWVICSVSEDNIMQIWQMAENIYNDEESDVTTSELEGQGS | disrupt the interaction with histone H4

Reference: PMC2572730, “Structural Basis for the Recognition of Histone H4 by the Histone-Chaperone RbAp46” (Structure(London, England:1993), 2008)
